Assay results taken from US20240182582A1.

Columns and labels:
[1] = molecular target: NKG2d (NKG2-D type II integral membrane protein) on NKL cells / NK cells (human) (UniProt P26718); test: flow cytometry on NKL cells, secondary antibody alone without primary antibody (background control), column 6 nM
[2] = molecular target: NKG2d (NKG2-D type II integral membrane protein) on NKL cells / NK cells (human) (UniProt P26718); test: flow cytometry on NKL cells, secondary antibody alone without primary antibody (background control), column 60 nM
[3] = molecular target: NKG2d (NKG2-D type II integral membrane protein) on NKL cells / NK cells (human) (UniProt P26718); test: flow cytometry on NKL cells, secondary antibody alone without primary antibody (background control), column 0.6 nM

Sequence of NKG2d (NKG2-D type II integral membrane protein) on NKL cells / NK cells (human) (P26718 whole entry): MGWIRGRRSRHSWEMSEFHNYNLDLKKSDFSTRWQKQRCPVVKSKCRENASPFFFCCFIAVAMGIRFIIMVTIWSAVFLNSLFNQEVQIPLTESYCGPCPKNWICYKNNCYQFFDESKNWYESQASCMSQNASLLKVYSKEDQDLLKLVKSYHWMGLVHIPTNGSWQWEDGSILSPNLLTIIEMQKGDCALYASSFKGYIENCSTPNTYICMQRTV

secondary antibody only (Goat anti hu-Fc AF647)
geomean fluorescence [1]: 115
geomean fluorescence [2]: 63.8
geomean fluorescence [3]: 92.6
